What is called stoichiometry N is a count of units in the complex or per binding partner.

This is an account of results in publication doi:10.1101/2021.11.02.466974 (bioRxiv, 2021).

For one data set, the target named is M1-linked diUb (UniProt P0CG48). In words: ITC.
The next data set deals with monoUb (UniProt P0CG48 1-76). Kind of data set: ITC.
The data set “SEC” concerns the molecule itself. Kind of data set: SEC. Background: Size exclusion chromatography separates by hydrodynamic size, large species first.
Data set [1] concerns the molecule itself. Kind of data set: Western blot of lysate under non-denaturing conditions. (In western blotting, separated proteins are transferred to a membrane and probed.)

B1: isolated N4BP1 CUE domain (residues 850-893) used for ITC, NMR and analytical gel filtration (domain or fragment)
chain: ETSELREALLKIFPDSEQKLKIDQILAAHPYMKDLNALSALVLD
For B1, the binding result with M1-linked diUb, with monoUb and in the data set “SEC” was “binds” throughout.

B2: mouse N4BP1 (613-893) in cell lysate (dimerization test of Fig. 2B) (domain or fragment)
chain: ADLKHIVIDGSNVAITHGLKKFFSCRGIAIAVEYFWKLGNRNITVFVPQWRTRRDPNITEQHFLTQLQELGILSLTPARMVFGERIASHDDRFLLHLADKTGGIIVTNDNFREFVTESVSWREIITKRLLQYTFVGDIFMVPDDPLGRNGPRLEEFLRKEAFLRHMQPLLNALPSVGTFDPGFRSPSTQVANNSHQPPPRIQTSSSPWLPQQSHFTALATLPSMQQNPPLPAQRSSAETSELREALLKIFPDSEQKLKIDQILAAHPYMKDLNALSALVLD
In the case of B2, the “stoichiometry N” value in data set [1] was determined as 2.
